The values below come from US20200071406A1 (AGENCY FOR SCIENCE TECHNOLOGY AND RESEARCH, published 2020).

The target in this assay is T1, soluble peptide MHC complex of p53125-134 and soluble HLA*A2402 (human).
T1 construct: Soluble complex used for phage selection, ELISA and SPR; also called p53-A24; p53-A24 monomers
Nature of the assay: surface plasmon resonance.

B1: P1C1_gl (antibody, V domains shown)
VH: QVQLQESGPGLVKPSQTLSLTCTVSGGSISSGGYYWSWIRQHPGKGLEWIGYIYYSGSTYYNPSLKSRVTISVDTSKNQFSLKLSSVTAADTAVYYCARENFGAFDHWGQGTLVTVSS
VL: QSVLTQPPSVSGAPGQRVTISCTGSSSNIGADYETHWYQQLPGTAPKLLIYGNTNRPSGVPDRFSGSKSGTSASLAITGLQAEDEADYYCQSYDSNLSAWVFGGGTKLTILS
notes: it induces ADCC, so it has an Fc; also called germline version of P1C1; original germline clone
For the molecule B1, the Kd was determined as 364 nM.
